Experimental data published in patent US20170292963A1 (Johns Hopkins, published 2017).

Molecular target: T1, Human NPTX2 (native protein in human CSF; antigen of the anti-human NPTX2 antibody) (human, UniProt P47972 17-431)
T1 construct: In CSF the protein is disulfide-linked with NPTX1 in heterocomplexes; also called Narp
T1 sequence: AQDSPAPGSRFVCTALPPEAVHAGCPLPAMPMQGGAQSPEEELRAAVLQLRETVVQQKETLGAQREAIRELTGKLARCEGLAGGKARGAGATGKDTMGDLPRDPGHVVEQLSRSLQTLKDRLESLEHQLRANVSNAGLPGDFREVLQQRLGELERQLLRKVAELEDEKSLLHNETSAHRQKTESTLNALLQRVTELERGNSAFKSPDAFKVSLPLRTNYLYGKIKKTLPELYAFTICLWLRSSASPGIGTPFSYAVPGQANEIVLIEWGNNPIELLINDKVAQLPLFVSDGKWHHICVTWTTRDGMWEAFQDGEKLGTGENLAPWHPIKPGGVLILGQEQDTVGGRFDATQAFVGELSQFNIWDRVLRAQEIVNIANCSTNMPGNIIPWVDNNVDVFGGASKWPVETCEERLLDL
Assay: co-immunoprecipitation from human CSF

binding result: binds
B1: Human NPTX1 (native protein in human CSF; antigen of the anti-human NPTX1 antibody) (other)
chain: QDFGPTRFICTSVPVDADMCAASVAAGGAEELRSSVLQLRETVLQQKETILSQKETIRELTAKLGRCESQSTLDPGAGEARAGGGRKQPGSGKNTMGDLSRTPAAETLSQLGQTLQSLKTRLENLEQYSRLNSSSQTNSLKDLLQSKIDELERQVLSRVNTLEEGKGGPRNDTEERVKIETALTSLHQRISELEKGQKDNRPGDKFQLTFPLRTNYMYAKVKKSLPEMYAFTVCMWLKSSATPGVGTPFSYAVPGQANELVLIEWGNNPMEILINDKVAKLPFVINDGKWHHICVTWTTRDGVWEAYQDGTQGGSGENLAPYHPIKPQGVLVLGQEQDTLGGGFDATQAFVGELAHFNIWDRKLTPGEVYNLATCSTKALSGNVIAWAESHIEIYGGATKWTFEACRQIN
